Here are results for two substances from article doi:10.1101/2020.08.17.254201.

For assay [1], the target named is SiEsaA_(328-685), fragment of Streptococcus intermedius B196 EsaA (Streptococcus intermedius B196). Put plainly: SEC-MALS.
Assay [2] has as its target SgEsaA_(332-725) (Streptococcus gallolyticus ATCC 43143). Put plainly: SEC-MALS.

As for “SiEsaA_(328-685), fragment of Streptococcus intermedius B196 EsaA (domain or fragment)”, in assay [1], the stoichiometry N came out at 2. In assay [2], SgEsaA_(332-725) (domain or fragment) returned a stoichiometry N of 2.
